Results reported in the Immune Epitope Database (IEDB).

What was measured:
[1] = molecular target: HLA-B*07:02; assay: IEDB peptide-MHC binding, purified MHC/competitive/radioactivity; filed as Kd, often an IC50 or EC50 that approximates it; ≥ and ≤ were set here for values at or beyond the usual limits of such assays
[2] = molecular target: HLA-B*35:01; assay: as above
[3] = molecular target: HLA-B*51:01; assay: as above
[4] = molecular target: HLA-B*53:01; assay: as above
[5] = molecular target: HLA-B*54:01; assay: as above
[6] = molecular target: HLA-A*68:02; assay: IEDB peptide-MHC binding, purified MHC/competitive/fluorescence; filed as Kd, often an IC50 or EC50 that approximates it; ≥ and ≤ were set here for values at or beyond the usual limits of such assays
[7] = molecular target: HLA-A*02:01; assay: IEDB peptide-MHC binding, purified MHC/direct/fluorescence; filed as Kd, often an IC50 or EC50 that approximates it; ≥ and ≤ were set here for values at or beyond the usual limits of such assays
[8] = molecular target: HLA-A*26:01; assay: IEDB peptide-MHC binding, purified MHC/competitive/fluorescence; filed as Kd, often an IC50 or EC50 that approximates it; ≥ and ≤ were set here for values at or beyond the usual limits of such assays
[9] = molecular target: HLA-A*69:01; assay: as above
[10] = molecular target: HLA-B*15:17; assay: as above
[11] = molecular target: HLA-B*18:01; assay: as above
[12] = molecular target: HLA-B*27:03; assay: as above
[13] = molecular target: HLA-B*39:01; assay: as above; details: source organism: Homo sapiens
[14] = molecular target: HLA-B*46:01; assay: as above
[15] = molecular target: HLA-B*51:01; assay: as above
[16] = molecular target: HLA-B*57:01; assay: as above
[17] = molecular target: HLA-A*02:01; assay: IEDB peptide-MHC binding, purified MHC/competitive/radioactivity; filed as Kd, often an IC50 or EC50 that approximates it; ≥ and ≤ were set here for values at or beyond the usual limits of such assays
[18] = molecular target: HLA-A*03:01; assay: IEDB peptide-MHC binding, purified MHC/competitive/fluorescence; filed as Kd, often an IC50 or EC50 that approximates it; ≥ and ≤ were set here for values at or beyond the usual limits of such assays
[19] = molecular target: HLA-B*15:03; assay: IEDB peptide-MHC binding, purified MHC/competitive/radioactivity; filed as Kd, often an IC50 or EC50 that approximates it; ≥ and ≤ were set here for values at or beyond the usual limits of such assays
[20] = molecular target: HLA-B*15:01; assay: IEDB peptide-MHC binding, purified MHC/competitive/fluorescence; filed as Kd, often an IC50 or EC50 that approximates it; ≥ and ≤ were set here for values at or beyond the usual limits of such assays
[21] = molecular target: HLA-A*11:01; assay: IEDB peptide-MHC binding, purified MHC/competitive/fluorescence; ≥ and ≤ were set here for values at or beyond the usual limits of such assays
[22] = molecular target: HLA-B*15:01; assay: IEDB peptide-MHC binding, purified MHC/competitive/radioactivity; filed as Kd, often an IC50 or EC50 that approximates it; ≥ and ≤ were set here for values at or beyond the usual limits of such assays
[23] = molecular target: HLA-A*02:02; assay: as above
[24] = molecular target: HLA-A*02:03; assay: as above
[25] = molecular target: HLA-A*02:06; assay: as above
[26] = molecular target: HLA-A*30:01; assay: as above
[27] = molecular target: HLA-A*32:01; assay: as above
[28] = molecular target: HLA-B*08:01; assay: as above
[29] = molecular target: HLA-A*02:01; assay: IEDB peptide-MHC binding, purified MHC/competitive/fluorescence; ≥ and ≤ were set here for values at or beyond the usual limits of such assays; details: source organism: Sudan ebolavirus
[30] = molecular target: HLA-A*24:02; assay: as above; details: source organism: Sudan ebolavirus
[31] = molecular target: HLA-A*24:03; assay: IEDB peptide-MHC binding, purified MHC/direct/fluorescence; filed as Kd, often an IC50 or EC50 that approximates it; ≥ and ≤ were set here for values at or beyond the usual limits of such assays
[32] = molecular target: HLA-A*01:01; assay: IEDB peptide-MHC binding, purified MHC/competitive/radioactivity; filed as Kd, often an IC50 or EC50 that approximates it; ≥ and ≤ were set here for values at or beyond the usual limits of such assays; details: source organism: Dengue virus 1 Brazil/97-11/1997
[33] = molecular target: HLA-A*03:01; assay: IEDB peptide-MHC binding, purified MHC/direct/fluorescence; filed as Kd, often an IC50 or EC50 that approximates it; ≥ and ≤ were set here for values at or beyond the usual limits of such assays; details: source organism: Araucaria virus
[34] = molecular target: HLA-A*68:02; assay: IEDB peptide-MHC binding, purified MHC/competitive/radioactivity; filed as Kd, often an IC50 or EC50 that approximates it; ≥ and ≤ were set here for values at or beyond the usual limits of such assays
[35] = molecular target: HLA-B*48:01; assay: IEDB peptide-MHC binding, purified MHC/direct/fluorescence; filed as Kd, often an IC50 or EC50 that approximates it; ≥ and ≤ were set here for values at or beyond the usual limits of such assays; details: source organism: Salmonella enterica subsp. enterica serovar Typhi
[36] = molecular target: HLA-A*02:01; assay: IEDB peptide-MHC binding, purified MHC/competitive/fluorescence; filed as Kd, often an IC50 or EC50 that approximates it; ≥ and ≤ were set here for values at or beyond the usual limits of such assays; details: source organism: Homo sapiens
[37] = source organism: SARS coronavirus Tor2
[38] = source organism: Vaccinia virus WR
[39] = source organism: Dengue virus 3 Martinique/1243/1999
[40] = source organism: Escherichia coli B171
[41] = source organism: Vaccinia virus Copenhagen
[42] = source organism: Sudan ebolavirus
[43] = source organism: Araucaria virus
[44] = source organism: Lassa virus Josiah
[45] = source organism: Human immunodeficiency virus type 1 BH10
[46] = source organism: Dengue virus 4 Philippines/H241/1956

Work on HPNPKGFCDL yielded a Kd [1, 37] of 968 nM, a Kd [2, 37] of 312 nM and a Kd [3, 37] of 923 nM. The Kd [4, 37] was 698 nM and the Kd [5, 37] was 9770 nM.

EELRSLYNTI was tested, and the Kd ([6]; source organism: Human immunodeficiency virus 1) was ≥ 20000 nM.

For NPNCLEWLRA, the Kd [1, 38] was 17400 nM, the Kd [2, 38] was 1160 nM and the Kd [3, 38] was ≥ 69600 nM. The Kd [4, 38] was 2050 nM and the Kd [5, 38] was 20.2 nM.

For TLKDGDFIL, the Kd ([7]; source organism: Homo sapiens) was ≤ 1 nM, the Kd ([8]; source organism: Homo sapiens) was ≥ 20000 nM and the Kd ([9]; source organism: Homo sapiens) was ≥ 20000 nM. For the same sequence, the Kd ([10]; source organism: Homo sapiens) was ≥ 20000 nM, the Kd ([11]; source organism: Homo sapiens) was ≥ 20000 nM and the Kd ([12]; source organism: Homo sapiens) was ≥ 20000 nM. For the same sequence, the Kd [13] was ≥ 20000 nM, the Kd ([14]; source organism: Homo sapiens) was ≥ 20000 nM and the Kd ([15]; source organism: Homo sapiens) was ≥ 20000 nM. For the same sequence, the Kd ([16]; source organism: Homo sapiens) was ≥ 20000 nM.

For FPQSNAPIQD, the Kd [2, 39] was 1110 nM, the Kd [3, 39] was ≥ 69600 nM and the Kd [4, 39] was 1940 nM.

In the case of KLVSLGVNAV, the Kd ([17]; source organism: Hepatitis C virus subtype 1b) is reported as 344 nM.

With RVDEIILFK the Kd ([18]; source organism: Bacillus cereus G9241) was 156 nM.

Sequence SSVSPPNVL has a Kd [19, 38] of 18.3 nM.

Sequence ILHVDILSF has a Kd [19, 38] of 23.8 nM.

TKVMFVIRF gave a Kd [19, 38] of 30.8 nM.

VMAGVFARY gave a Kd [18, 40] of 21.4 nM and a Kd [20, 40] of 61.7 nM.

Work on EDNPGFFRV yielded a Kd ([6]; source organism: Yersinia pestis CO92) of 296 nM.

In the case of FGIKCIKKG, the IC50 ([21]; source organism: Vaccinia virus) is reported as ≥ 290000 nM.

TLYDRYLIH was tested, and the Kd ([18]; source organism: Coxiella burnetii RSA 331) was 6.9 nM.

In the case of RQVVDFFKF, the Kd [19, 38] is reported as 0.344 nM.

ISSLGILVF gave a Kd [19, 38] of 81.7 nM.

QLYSTLLSF was tested, and the Kd [22, 38] was 3 nM and the Kd [19, 38] was 0.565 nM.

With TESDMDYHK the IC50 ([21]; source organism: Zaire ebolavirus) was ≥ 174000 nM.

Work on MYIFLPVML yielded a Kd ([6]; source organism: Entamoeba dispar SAW760) of 94.1 nM.

Sequence ELAYYNSCM has a Kd [23, 38] of 129 nM, a Kd [24, 38] of 136 nM and a Kd [25, 38] of 3580 nM. The Kd [26, 41] was 1450 nM, the Kd [27, 41] was ≥ 20600 nM and the Kd [28, 41] was 346 nM. It also gave a Kd [22, 41] of 594 nM and a Kd [19, 41] of 4140 nM.

QLIPCMDVVL gave a Kd ([17]; source organism: Triticum aestivum) of 384 nM.

ATSYLEYEI was tested, and the IC50 [29] was 4960 nM, the IC50 [21, 42] was ≥ 81400 nM and the IC50 [30] was 5080 nM.

With LYNTAIVGL the Kd ([31]; source organism: Mycobacterium tuberculosis variant bovis) was 0.8 nM.

For TPTGTVMDI, the Kd [3, 39] was 7240 nM and the Kd [4, 39] was 114 nM.

FFLQRLYFL was tested, and the Kd [26, 38] was 768 nM, the Kd [27, 38] was ≥ 38100 nM and the Kd [28, 38] was 6.79 nM. For the same sequence, the Kd [22, 38] was 1210 nM and the Kd [19, 38] was 805 nM.

For FTQTAGPWHL, the Kd [32] was ≥ 23500 nM and the Kd ([3]; source organism: Dengue virus 1 Brazil/97-11/1997) was ≥ 36500 nM.

In the case of EQYKTESFF, the Kd [22, 38] is reported as 6.57 nM and the Kd [19, 38] is reported as 1.8 nM.

YSPALNKMF was tested, and the Kd ([10]; source organism: Homo sapiens) was 336 nM.

With FLAAECPFL the Kd ([7]; source organism: Itapua hantavirus) was 1.7 nM, the Kd [33] was ≥ 20000 nM and the Kd [8, 43] was ≥ 20000 nM. The Kd [10, 43] was ≥ 20000 nM, the Kd [11, 43] was ≥ 20000 nM and the Kd [12, 43] was ≥ 20000 nM. For the same sequence, the Kd [14, 43] was ≥ 20000 nM, the Kd [15, 43] was ≥ 20000 nM and the Kd [16, 43] was ≥ 20000 nM.

In the case of GLSRYVAR, the Kd ([17]; source organism: Hepatitis B virus) is reported as ≥ 50000 nM.

IMTSYQYLI was tested, and the Kd [17, 44] was 33.3 nM, the Kd [23, 44] was 210 nM and the Kd [24, 44] was 78.1 nM. For the same sequence, the Kd [25, 44] was 597 nM and the Kd [34, 44] was 698 nM.

Sequence AVVVNPSVK has an IC50 ([21]; source organism: West Nile virus) of 2250 nM.

Sequence RAVEPGSML has a Kd [35] of 712 nM.

With TFLQSPPIR the IC50 [21, 42] was ≥ 119000 nM and the IC50 [30] was 38800 nM.

For LVAGGLLTV, the Kd ([9]; source organism: dengue virus type 2) was ≥ 20000 nM and the Kd ([25]; source organism: Dengue virus 2 Jamaica/1409/1983) was 3.95 nM.

KKMTCGQPL was tested, and the Kd [19, 38] was 1.51 nM.

Work on VEVEPGSSF yielded a Kd [19, 38] of 1.66 nM.

With KTYYHHTGY the Kd ([18]; source organism: Francisella tularensis subsp. holarctica OSU18) was 5.2 nM.

SFMQEIPTF showed a Kd ([31]; source organism: Mammarenavirus juninense) of 0.3 nM.

FQQPQFQYL gave a Kd [19, 41] of 22.6 nM.

In the case of RGPGRAFVTI, the Kd [17, 45] is reported as 4600 nM, the Kd [23, 45] is reported as ≥ 70000 nM and the Kd [24, 45] is reported as 12200 nM. For the same sequence, the Kd [25, 45] was 5790 nM and the Kd [34, 45] was ≥ 69800 nM.

For FMTNFSMVY, the Kd [19, 38] was 2.26 nM.

Sequence VALLRTYCI has a Kd [28, 46] of 35.5 nM and a Kd [3, 46] of 392 nM.

LDAVIRANN was tested, and the IC50 [21, 38] was ≥ 169000 nM.

For DMEISAYRKL, the Kd ([17]; source organism: Homo sapiens) was ≥ 58800 nM, the Kd ([24]; source organism: Homo sapiens) was ≥ 27600 nM and the Kd ([34]; source organism: Homo sapiens) was ≥ 60000 nM.

Work on DVALEDNLI yielded a Kd ([6]; source organism: Vibrio cholerae V52) of 91.9 nM.

In the case of FNVNGSQVY, the Kd [19, 38] is reported as 264 nM.

For IYDFYYLDY, the Kd [36] was ≥ 20000 nM, the Kd ([8]; source organism: Homo sapiens) was ≥ 20000 nM and the Kd ([9]; source organism: Homo sapiens) was ≥ 20000 nM. For the same sequence, the Kd ([20]; source organism: Homo sapiens) was ≥ 20000 nM, the Kd ([10]; source organism: Homo sapiens) was ≥ 20000 nM and the Kd ([11]; source organism: Homo sapiens) was ≥ 20000 nM. The Kd ([12]; source organism: Homo sapiens) was ≥ 20000 nM, the Kd [13] was ≥ 20000 nM and the Kd ([14]; source organism: Homo sapiens) was ≥ 20000 nM. For the same sequence, the Kd ([15]; source organism: Homo sapiens) was ≥ 20000 nM and the Kd ([16]; source organism: Homo sapiens) was ≥ 20000 nM.

RSSRGVQFL gave a Kd [19, 41] of 123 nM.
